Source: patent US12491259B2, “Anti-variable MUC1* antibodies and uses thereof” (Minerva Biotechnologies Corporation, priority 2022, dated 2025)

What was measured:
Experiment in all cases: xCELLigence real-time killing assay (impedance)
Format in all cases: cell-based, human
[1] = test system: T47D wild-type breast cancer cells; settings: for concentration showing potent / effective / comparable killing: after 120 hours; for ADC concentration at which essentially all the tumor cells were killed: readout 120 hours post ADC addition, DAR: MNC2-MMAE 4.1, MN20A10-MMAE 5.8, MNC2-MMAF 3.7, MN20A10-MMAF 3.8; for concentration at which target cells are effectively killed: within a 40 hour timeframe
Experimental: FIGS. 49A-49J show traces from the real-time killing assays performed on an xCELLigence instrument. In this assay, impedance is measured in real-time. When the adherent cancer cells are killed and come off of the electrode surface, impedance (insulation) decreases. T47D wild-type breast cancer cells were plated onto multi-electrode-well plates at 5,000 cells per well and allowed to adhere and grow for 24 hours before the addition of ADCs. Either MNC2-MMAE, DAR 4.1, MN20A10-MMAE, DAR 5.8, MNC2-MMAF, DAR 3.7, MN20A10-MMAF, DAR 3.8, MNC2-Deruxtecan, DAR 7.2, or MN20A10-Deruxtecan, DAR 4.6, was then added to the cancer cells. […] Taxol and Triton are added as the positive killing control. […] Taxol and Triton are added as the positive killing control. […]
(§1) To assess real-time killing of target cancer cells including breast cancer cells (T47D), non-small cell lung cancer cells (NCI-H1975) and pancreatic cancer cells (HP AF II) assays were performed on an xCELLigence RTCA MP Instrument (Agilent). Target Cancer cells were seeded onto a multi-electrode well plate at a density of 5000 cells/well (100 μL of a 50,000 cells/mL stock) and incubated for 24 hr in a 37° C./5% CO2 incubator. mAb MNC2 ADCs or mAb MN20A10-ADCs were prepared as a 2× solution in corresponding growth media and 100 μL of each concentration was added to target cells. As a positive control (100% cell killing) cells were treated with either 1% triton or 1 μM Taxol instead of ADC. After 40-120 hours incubation in a 37° C./5% CO2 incubator cell killing was assessed. In this assay, impedance is measured in real-time. When the adherent cancer cells are killed and come off the electrode surface, impedance (insulation) decreases.
MNC2-ADCs and MN20A10-ADCs were also assayed for their ability to kill both low and high MUC1* expressing cells by monitoring killing in real-time using an xCELLigence instrument. In the xCelligence system, target cancer cells, which are adherent, are plated onto electrode array 96-well plates. Adherent cells insulate the electrode and increase the impedance. The number of adherent cancer cells is directly proportional to impedance. […] Therefore, increasing impedance reflects the growth of the cancer cells and decreasing impedance reflects the killing of the cancer cells.
Breast cancer cell line T47D-wt expresses MUC1* at low to low-medium levels. Pancreatic cancer cell line HPAF II-wt expresses even lower levels of MUC1* and lung cancer cell line NCI-H1975 express still lower levels of MUC1*.

[2] = test system: HPAF II wild-type (WT) pancreatic cancer cells; settings: for ADC concentration at which essentially all the tumor cells were killed: readout 120 hours post ADC addition
Experimental: In this assay, impedance is measured in real-time. When the adherent cancer cells are killed and come off of the electrode surface, impedance (insulation) decreases. HPAF II wild-type (WT) pancreatic cancer cells were plated onto multi-electrode-well plates at 5,000 cells per well and allowed to adhere and grow for 24 hours before the addition of ADCs. Either MNC2-MMAE, DAR 4.1, MN20A10-MMAE, DAR 5.8, MNC2-MMAF, DAR 3.7, MN20A10-MMAF, DAR 3.8, MNC2-Deruxtecan, DAR 7.2, or MN20A10-Deruxtecan, DAR 4.6, was then added to the cancer cells. […] Taxol and Triton are added as the positive killing control. […] Taxol and Triton are added as the positive killing control. […] As indicated, essentially all the pancreatic tumor cells were killed at an MNC2-MMAE concentration of 56 nM. […] As indicated, essentially all the tumor cells were killed at an MNC2-MMAF concentration of 56 nM. […] Significant killing is measured at 120 hours at a concentration of about 56 nM. […] As indicated, essentially all the tumor cells were killed at an MN20A10-MMAE concentration of 56 nM-19 nM. […] As indicated, essentially all the tumor cells were killed at an MN20A10-MMAF concentration of 56 nM.
as §1, with “When the adherent cancer cells are killed and come off the electrode surface, impedance (insulation) decreases.” left out

[3] = test system: HPAF II-MUC1* pancreatic cancer cells; settings: readout 120 hours post ADC addition
Experimental: FIGS. 53A-53I show traces from the real-time killing assays performed on an xCELLigence instrument. In this assay, impedance is measured in real-time. When the adherent cancer cells are killed and come off of the electrode surface, impedance (insulation) decreases. HPAF II-MUC1* pancreatic cancer cells, engineered to express more MUC1*, were plated onto multi-electrode-well plates at 5,000 cells per well and allowed to adhere and grow for 24 hours before the addition of ADCs. Either MNC2-MMAE, DAR 4.1, MN20A10-MMAE, DAR 5.8, MNC2-MMAF, DAR 3.7, MN20A10-MMAF, DAR 3.8, MNC2-Deruxtecan, DAR 7.2, or MN20A10-Deruxtecan, DAR 4.6, was then added to the cancer cells. […] Taxol and Triton are added as the positive killing control. […] Taxol and Triton are added as the positive killing control. […] As indicated, essentially all the pancreatic tumor cells were killed at an MNC2-MMAE concentration of 56 nM. […] As indicated, essentially all the tumor cells were killed at an MNC2-MMAF concentration of 56 nM. […] As indicated, essentially all the tumor cells were killed at an MN20A10-MMAE concentration of 56 nM-19 nM. […] As indicated, essentially all the tumor cells were killed at an MN20A10-MMAF concentration of 56 nM.
as §1, with “When the adherent cancer cells are killed and come off the electrode surface, impedance (insulation) decreases.” left out

B1: MN20A10-MMAF (conjugate)
VH: QVQLVESGGGLVKPGGSLRLSCAASGFTFSTYAMSWIRQAPGKGLEWVASIGRAGSTYYSDSVKGRFTISRDNAKNSLYLQMNSLRAEDTAVYYCARGPIYNDYDEFAYWGQGTLVTVSS
VL: EIVLTQSPATLSLSPGERATLSCKSSQSVLYSSNQKNYLAWYQQKPGQAPRLLIYWASTRESGIPARFSGSGSGTDFTLTISSLEPEDFAVYYCHQYLSSLTFGGGTKVEIKR
- concentration showing potent / effective / comparable killing [1]: 167 nM
- ADC concentration at which essentially all the tumor cells were killed [1]: 167 nM
- concentration at which target cells are effectively killed [1]: 500 nM
- ADC concentration at which essentially all the tumor cells were killed [2]: 56 nM
- ADC concentration at which essentially all (nearly all, near total) tumor cells were killed [3]: 56 nM

B2: MNC2-MMAF (conjugate)
VH: EVQLVESGGGLVKPGGSLRLSCAASGFTFSGYAMSWVRQAPGKGLEWVSTISSGGTYIYYPDSVKGRFTISRDNAKNSLYLQMNSLRAEDTAVYYCARLGGDNYYEYFDVWGKGTTVTVSS
VL: DIVLTQSPASLAVSPGQRATITCRASKSVSTSGYSYMHWYQQKPGQPPKLLIYLASNLESGVPARFSGSGSGTDFTLTINPVEANDTANYYCQHSRELPFTFGGGTKVEIKRT
- concentration showing potent / effective / comparable killing [1]: 167 nM
- ADC concentration at which essentially all the tumor cells were killed [1]: 167 nM
- concentration at which target cells are effectively killed [1]: 500 nM
- ADC concentration at which essentially all the tumor cells were killed [2]: 56 nM
- ADC concentration at which essentially all (nearly all, near total) tumor cells were killed [3]: 56 nM

B3: MNC2-Deruxtecan (conjugate)
VH: B2 VH
VL: B2 VL
- concentration showing potent / effective / comparable killing [1]: 167 nM
- concentration reaching approximately the same level of killing as MNC2-MMAE or -MMAF ([1]; by 100 hours, DAR 7.2): 167 nM
- concentration with significant killing ([2]; at 120 hours): about 56 nM
- ADC concentration at which essentially all (nearly all, near total) tumor cells were killed [3]: 167 nM
